± gives the uncertainty stated by the source.
Experiment: self-splicing fitness, log relative to wild type (ln ratio); higher = more splicing; Tetrahymena group I intron in knt gene, E. coli kanamycin selection, DiMSum; sequences stand for … in CUCUCU…GGAGGGAAAAGUUAUCAGGCAUGCACCUGGUAGCUAGUCUUUAAACCAAUAGAUUGCAUCGGUUUAAAAGGCAAGACCGUCAAAUUGCGGGAAAGGGGUCAACAGCCGUUCAGUACCAAGUCUCAGGGGAAACUUUGAGAUGGCCUUGCAAAGGGUAUGGUAAUAAGCUGACGGACAUGGUCCUAACCACGCAGCCAAGUCCUAAGUCAACAGAUCUUCUGUUGAUAUGGAUGCAGUUCACAGACUAAAUGUCGGUCGGGGAAGAUGUAUUCUUCUCAUAAGAUAUAGUCGGACCUCUCCUUAAUGGGAGCUAGCGGAUGAAGUGAUGCAACACUGGAGCCGCUGGGAACUAAUUUGUAUGCGAAAGUAUAUUGAUUAGUUUUGGAGUACUCGUGGUCG
Procedure, shortened: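 Library with all eight P1ex-region intron nucleotides randomised, intron inside the knt kanamycin-resistance gene on pET-22b(+), in E. coli BL21(DE3). Cells grew overnight at 37°C or 30°C on LB agar with or without 25 μg/mL kanamycin (plus 100 μg/mL carbenicillin, 50 μM IPTG, 0.2% rhamnose), in six replicate transformations. Pooled colonies were amplicon-sequenced on Illumina HiSeq 2500. DiMSum fitness is the error-weighted combination of wild-type-normalised replicate fold changes, kanamycin versus none.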

Sequence | self-splicing fitness (ln) (30 °C) | self-splicing fitness (ln) (37 °C)
AGCGAGCAAUAUUACGAUGG | -4.61 ± 0.42 | -2.68 ± 0.24
AGCGAGCAAUAUUACGCACG | -3.64 ± 0.45 | –
AGCGAGCAAUAUUACGCACU | -1.62 ± 0.2 | -1.37 ± 0.29
AGCGAGCAAUAUUACGCCAC | -1.84 ± 0.39 | –
AGCGAGCAAUAUUACGCGCA | -0.891 ± 0.23 | -0.546 ± 0.2
AGCGAGCAAUAUUACGCUAU | – | -2.87 ± 0.24
AGCGAGCAAUAUUACGCUCA | -2.59 ± 0.21 | -2.5 ± 0.26
AGCGAGCAAUAUUACGGAAC | -3.53 ± 0.32 | -1.5 ± 0.29
AGCGAGCAAUAUUACGGCAC | -1.57 ± 0.22 | -0.495 ± 0.3
AGCGAGCAAUAUUACGGCGG | -1.1 ± 0.19 | -1.8 ± 0.24
AGCGAGCAAUAUUACGGCGU | -0.762 ± 0.11 | -0.808 ± 0.093
AGCGAGCAAUAUUACGGCUG | -1.47 ± 0.12 | -0.625 ± 0.15
AGCGAGCAAUAUUACGGGUU | -2.83 ± 0.2 | -1.09 ± 0.15
AGCGAGCAAUAUUACGGUGU | -2.55 ± 0.24 | -2.37 ± 0.24
AGCGAGCAAUAUUACGUAAG | – | -1.76 ± 0.37
AGCGAGCAAUAUUACGUAAU | -3.21 ± 0.14 | -2.04 ± 0.14
AGCGAGCAAUAUUACGUAGU | -4.11 ± 0.16 | -1.11 ± 0.13
AGCGAGCAAUAUUACGUCCC | -1 ± 0.11 | -0.699 ± 0.14
AGCGAGCAAUAUUACGUGAA | -3.44 ± 0.19 | -1.23 ± 0.2
AGCGAGCAAUAUUACGUUAA | -3.86 ± 0.37 | -2.67 ± 0.3
AGCGAGCAAUAUUACGUUCA | -1.81 ± 0.096 | -0.891 ± 0.091
AGCGAGCAAUAUUACGUUGU | -3.39 ± 0.13 | -3.31 ± 0.15
AGCUAGCAAUAUUACGAAGC | -3.35 ± 0.22 | -2.43 ± 0.3
AGCUAGCAAUAUUACGAAUA | -3.3 ± 0.27 | -2.35 ± 0.24
AGCUAGCAAUAUUACGAGAU | -3.17 ± 0.19 | -1.22 ± 0.16

Sequence | self-splicing fitness (ln) (30 °C) | self-splicing fitness (ln) (37 °C)
AGCUAGCAAUAUUACGAGGA | -3.9 ± 0.35 | -2.42 ± 0.42
AGCUAGCAAUAUUACGAGGC | -3.21 ± 0.24 | -1.96 ± 0.21
AGCUAGCAAUAUUACGAUGC | -2.47 ± 0.12 | -2.12 ± 0.17
AGCUAGCAAUAUUACGCAAU | -1.79 ± 0.19 | -1.77 ± 0.18
AGCUAGCAAUAUUACGCCUU | -1.7 ± 0.1 | -0.609 ± 0.08
AGCUAGCAAUAUUACGCUGA | -2.63 ± 0.18 | -0.955 ± 0.09
AGCUAGCAAUAUUACGGCAA | -0.629 ± 0.081 | -0.284 ± 0.097
AGCUAGCAAUAUUACGGGAG | -1.59 ± 0.13 | -2.54 ± 0.19
AGCUAGCAAUAUUACGGGAU | -2.04 ± 0.11 | -1.49 ± 0.13
AGCUAGCAAUAUUACGGGCC | -3.59 ± 0.26 | -2.51 ± 0.24
AGCUAGCAAUAUUACGGUAG | -3.91 ± 0.27 | -3.18 ± 0.23
AGCUAGCAAUAUUACGGUCC | -0.52 ± 0.1 | -0.0902 ± 0.14
AGCUAGCAAUAUUACGGUUG | -1.95 ± 0.075 | -1.37 ± 0.11
AGCUAGCAAUAUUACGUAGC | -1.84 ± 0.12 | -2.46 ± 0.25
AGCUAGCAAUAUUACGUAUC | -3.55 ± 0.18 | -3.09 ± 0.24
AGCUAGCAAUAUUACGUCAA | -4.05 ± 0.41 | -2 ± 0.16
AGCUAGCAAUAUUACGUCCU | -0.19 ± 0.083 | 0.188 ± 0.11
AGCUAGCAAUAUUACGUUCA | -1.59 ± 0.12 | -0.979 ± 0.15
AGGAAGCAAUAUUACGAAAA | – | -2.42 ± 0.41
AGGAAGCAAUAUUACGAAGG | -2.92 ± 0.28 | -2.8 ± 0.38
AGGAAGCAAUAUUACGACCC | -0.677 ± 0.23 | -1.73 ± 0.26
AGGAAGCAAUAUUACGAGAA | – | -1.39 ± 0.32
AGGAAGCAAUAUUACGCACG | -0.986 ± 0.15 | -1.23 ± 0.18
AGGAAGCAAUAUUACGCAUU | -3.7 ± 0.35 | -2.13 ± 0.26
AGGAAGCAAUAUUACGCCAA | -1.65 ± 0.35 | -1.5 ± 0.31

From the supplement of paper PMC7877785
